Earlier results in PMC11820047.
Read-outs that look alike come from different tables or passages of the source.

Assays:
EGFR (Homo sapiens) [1] = molecular target: EGFR (Homo sapiens) (UniProt P00533)
EGFR (Homo sapiens) [2] = molecular target: EGFR (Homo sapiens) (UniProt P00533); remark: listed apart in the source

Kd (EGFR (Homo sapiens) [1])	Substance	Kd (EGFR (Homo sapiens) [2])
2 nM	EGF (from UniProt P01133)	
	GE11	22 nM
